Experimental data taken from patent US20210095036A1 (University of Pennsylvania, published 2021).
Substitutions are numbered along the chain they refer to.

T1: GFRα4 isoform a (GFRα4a), Fc fusion with 6 His (human)
T1 construct: the entry holds the whole fusion; also called GFR4α4a; immobilized GFRα4 isoform a
T1 chain: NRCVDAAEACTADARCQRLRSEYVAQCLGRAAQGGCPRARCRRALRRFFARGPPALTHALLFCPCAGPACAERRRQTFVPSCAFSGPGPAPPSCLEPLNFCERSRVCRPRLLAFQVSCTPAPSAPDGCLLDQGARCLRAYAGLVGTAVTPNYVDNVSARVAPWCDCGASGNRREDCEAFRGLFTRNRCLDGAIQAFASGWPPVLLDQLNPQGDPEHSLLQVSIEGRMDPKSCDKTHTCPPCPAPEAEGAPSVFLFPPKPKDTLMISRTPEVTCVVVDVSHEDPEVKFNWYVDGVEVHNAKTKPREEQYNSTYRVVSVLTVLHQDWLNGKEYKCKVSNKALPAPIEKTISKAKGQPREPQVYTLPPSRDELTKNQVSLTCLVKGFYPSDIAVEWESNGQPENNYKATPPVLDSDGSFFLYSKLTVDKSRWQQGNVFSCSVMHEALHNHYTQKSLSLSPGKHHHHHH

T2: human GFRα4 isoform a (GFRα4a) on transduced cells (human, UniProt Q9GZZ7-2 21-248)
T2 construct: whole, on cells; also called Nalm6 cells expressing the GFRα4 isoform a
T2 sequence (looked up): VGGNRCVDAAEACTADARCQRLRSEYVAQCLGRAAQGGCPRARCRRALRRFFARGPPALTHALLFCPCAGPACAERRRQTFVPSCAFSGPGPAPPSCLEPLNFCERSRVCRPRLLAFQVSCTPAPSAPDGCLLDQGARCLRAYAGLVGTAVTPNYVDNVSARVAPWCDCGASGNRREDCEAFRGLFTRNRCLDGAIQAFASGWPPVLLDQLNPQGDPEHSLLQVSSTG

B1: 11.H2m1.L1 (scFv)
scFv: QLVLTQSPSASASLGASVKLTCTLSSAHKTYTIAWHQQQPEKGPRYLMKVKSDGSYSKGDGIPDRFSGSSSGAERYLTISSLQSEDEADYYCGADDNGGYVFGGGTKLTVLGGGSSRSSSSGGGGSGGGGEQSVKESGGGLVQPGGSLRLSCAASGFTLSRHALTWVRQAPGKGLEWIGAIDNAGTTYYASWAKSRFTISRNTDLHTVYLQMNSLRAEDTAVYFCARVFYDINSGYYLDGMDLWGPGTLVTVSS
notes: pIII not in the entry; order Vλ-linker-VH; The printed entry has an E before QSVKE of the VH; also called scFv 11
B2: 9.H2.L1 (scFv)
scFv: QLVLTQSPSASASLGASVKLTCTLSSAHKTYTIAWHQQQPEKGPRYLMKVKSDGSYSKGDGIPDRFSGSSSGAERYLTISSLQSEDEADYYCGADDNGGYVFGGGTKLTVLGGGSSRSSSSGGGGSGGGGEVQLVESGGGLVQPGGSLRLSCAASGFTFSRHALTWVRQAPGKGLEWVSAIDNAGTTYYASWAKSRFTISRDNAKNSLYLQMNSLRAEDTAVYYCARVFYDINSGYYLDGMDLWGPGTLVTVSS
notes: pIII not in the entry; order Vλ-linker-VH; also called scFv 9
B3: 1.H1.L3 (scFv)
scFv: QSALTQPASVSGSPGQSITISCTGTSAHKTYTVSWYQQHPGKAPKLMIYVKSDGSYNRPSGVSNRFSGSKSGNTASLTISGLQAEDEADYYCGADDNGGYVFGGGTKLTVLGGGSSRSSSSGGGGSGGGGQVQLQESGPGLVKPSETLSLTCAVSGYSISRHALTWIRQPPGKGLEWIGAIDNAGTTYYASWAKSRVTISVDTSKNQFSLKLSSVTAADTAVYYCARVFYDINSGYYLDGMDLWGPGTLVTVSS
notes: pIII not in the entry; order Vλ-linker-VH; also called scFv 1
B4: 7.H2m1.L2 (scFv)
scFv: QSVLTQPPSASGTPGQRVTISCSGSSAHKTYTVNWYQQLPGTAPKLLIYVKSDGSYQRPSGVPDRFSGSKSGTSASLAISGLQSEDEADYYCGADDNGGYVFGGGTKLTVLGGGSSRSSSSGGGGSGGGGEQSVKESGGGLVQPGGSLRLSCAASGFTLSRHALTWVRQAPGKGLEWIGAIDNAGTTYYASWAKSRFTISRNTDLHTVYLQMNSLRAEDTAVYFCARVFYDINSGYYLDGMDLWGPGTLVTVSS
notes: pIII not in the entry; order Vλ-linker-VH; The printed entry has an E before QSVKE of the VH; also called scFv 7
B5: 3.H1m1.L3 (scFv)
scFv: QSALTQPASVSGSPGQSITISCTGTSAHKTYTVSWYQQHPGKAPKLMIYVKSDGSYNRPSGVSNRFSGSKSGNTASLTISGLQAEDEADYYCGADDNGGYVFGGGTKLTVLGGGSSRSSSSGGGGSGGGGQQSVKESGPGLVKPSETLSLTCAVSGFSLSRHALTWVRQPPGKGLEWIGAIDNAGTTYYASWAKSRVTISRNTDLHTVSLKLSSVTAADTAVYFCARVFYDINSGYYLDGMDLWGPGTLVTVSS
notes: pIII not in the entry; order Vλ-linker-VH; also called scFv 3; H1m.L3
B6: 23.H1.L2m1 (scFv)
scFv: QFVLTQPPSASGTPGQRVTISCTLSSAHKTYTIDWYQQLPGTAPKLLIYVKSDGSYTKGTGVPDRFSGSSSGADRYLAISGLQSEDEADYYCGADDNGGYVFGGGTQLTVTGGGSSRSSSSGGGGSGGGGQVQLQESGPGLVKPSETLSLTCAVSGYSISRHALTWIRQPPGKGLEWIGAIDNAGTTYYASWAKSRVTISVDTSKNQFSLKLSSVTAADTAVYYCARVFYDINSGYYLDGMDLWGPGTLVTVSS
notes: pIII not in the entry; order Vλ-linker-VH; also called scFv 23
B7: 16.H1m1.L1m1 (scFv)
scFv: QFVLTQSPSASASLGASVKLTCTLSSAHKTYTIDWYQQQPEKGPRYLMQVKSDGSYTKGTGVPDRFSGSSSGADRYLTISSLQSEDEADYYCGADDNGGYVFGGGTQLTVTGGGSSRSSSSGGGGSGGGGQQSVKESGPGLVKPSETLSLTCAVSGFSLSRHALTWVRQPPGKGLEWIGAIDNAGTTYYASWAKSRVTISRNTDLHTVSLKLSSVTAADTAVYFCARVFYDINSGYYLDGMDLWGPGTLVTVSS
notes: pIII not in the entry; order Vλ-linker-VH; also called scFv 16
B8: 15.H1m1.L1 (scFv)
scFv: B7 scFv with F2L, D34A, Y36H, Q49K, T57S, T60D, V62I, D74E, Q107K, T111L
notes: pIII not in the entry; order Vλ-linker-VH; also called scFv 15
B9: 0.410HC.410LC (scFv)
scFv: QFVLTQSPSVSAALGASAKLTCTLSSAHKTYTIDWYQQQQGEAPRYLMQVKSDGSYTKGTGVPDRFSGSSSGADRYLIIPSVQADDEAGYVCGADDNGGYVFGGGTQLTVTGGGSSRSSSSGGGGSGGGGQSVKESEGGLFKPTDTLTLTCTVSGFSLSRHALTWVRQAPGNGLEWIGAIDNAGTTYYASWAKSRSTITRNTDLHTVTLKMTSLTASDTATYFCARVFYDINSGYYLDGMDLWGPGTLVTVSS
notes: pIII not in the entry; order Vλ-linker-VH; positive control; also called original rabbit P4-10 scFv; scFv 0
B10: 5.H2.L2 (scFv)
scFv: QSVLTQPPSASGTPGQRVTISCSGSSAHKTYTVNWYQQLPGTAPKLLIYVKSDGSYQRPSGVPDRFSGSKSGTSASLAISGLQSEDEADYYCGADDNGGYVFGGGTKLTVLGGGSSRSSSSGGGGSGGGGEVQLVESGGGLVQPGGSLRLSCAASGFTFSRHALTWVRQAPGKGLEWVSAIDNAGTTYYASWAKSRFTISRDNAKNSLYLQMNSLRAEDTAVYYCARVFYDINSGYYLDGMDLWGPGTLVTVSS
notes: pIII not in the entry; order Vλ-linker-VH; also called scFv 5
B11: 13.H1.L1 (scFv)
scFv: QLVLTQSPSASASLGASVKLTCTLSSAHKTYTIAWHQQQPEKGPRYLMKVKSDGSYSKGDGIPDRFSGSSSGAERYLTISSLQSEDEADYYCGADDNGGYVFGGGTKLTVLGGGSSRSSSSGGGGSGGGGQVQLQESGPGLVKPSETLSLTCAVSGYSISRHALTWIRQPPGKGLEWIGAIDNAGTTYYASWAKSRVTISVDTSKNQFSLKLSSVTAADTAVYYCARVFYDINSGYYLDGMDLWGPGTLVTVSS
notes: pIII not in the entry; order Vλ-linker-VH; also called scFv 13
B12: P4-10 antibody (full-length rabbit IgG containing the P4-10 rabbit variable regions) (antibody, V domains shown)
VH: QSVKESEGGLFKPTDTLTLTCTVSGFSLSRHALTWVRQAPGNGLEWIGAIDNAGTTYYASWAKSRSTITRNTDLHTVTLKMTSLTASDTATYFCARVFYDINSGYYLDGMDLWGPGTLVTVSS
VL: QFVLTQSPSVSAALGASAKLTCTLSSAHKTYTIDWYQQQQGEAPRYLMQVKSDGSYTKGTGVPDRFSGSSSGADRYLIIPSVQADDEAGYVCGADDNGGYVFGGGTQLTVT
notes: Full-length rabbit IgG, lambda light chain; also called anti-GFRα4 P4-10 antibody; rabbit P4-10

Experiments:
[1] = target: T1, GFRα4 isoform a (GFRα4a), Fc fusion …; test: phage ELISA, immobilized GFRα4a; first token of the cell (GFRα4b: NT)
Excerpt: (§1) To perform these ELISAs, the GFRα4a isoform comprising a portion of GFRα4a (Asn24 -Ser245, UniProt accession #Q9GZZ7-2) was used, followed by a Factor Xa cleavage site/linker, a portion of optimized IgG1 Fc domain (Pro100-Lys330), and 6 His residues for purification. The GFRα4b isoform comprised a portion of GFRα4b (Asn24-Va1274, UniProt #Q9GZZ7-1), followed by a TEV cleavage site linker, and a portion of human IgG1 Fc domain (Asp104-Lys330).

[2] = target: T3, GFRα4 isoform b (GFRα4b), Fc fusion (human); test: phage ELISA, immobilized GFRα4b; second token of the cell
T3 construct: the entry holds the whole fusion; also called GFR4α4b; GFRα4-Fc
Excerpt: as §1
Target sequence in this assay (chain, as listed by the source limits assumed): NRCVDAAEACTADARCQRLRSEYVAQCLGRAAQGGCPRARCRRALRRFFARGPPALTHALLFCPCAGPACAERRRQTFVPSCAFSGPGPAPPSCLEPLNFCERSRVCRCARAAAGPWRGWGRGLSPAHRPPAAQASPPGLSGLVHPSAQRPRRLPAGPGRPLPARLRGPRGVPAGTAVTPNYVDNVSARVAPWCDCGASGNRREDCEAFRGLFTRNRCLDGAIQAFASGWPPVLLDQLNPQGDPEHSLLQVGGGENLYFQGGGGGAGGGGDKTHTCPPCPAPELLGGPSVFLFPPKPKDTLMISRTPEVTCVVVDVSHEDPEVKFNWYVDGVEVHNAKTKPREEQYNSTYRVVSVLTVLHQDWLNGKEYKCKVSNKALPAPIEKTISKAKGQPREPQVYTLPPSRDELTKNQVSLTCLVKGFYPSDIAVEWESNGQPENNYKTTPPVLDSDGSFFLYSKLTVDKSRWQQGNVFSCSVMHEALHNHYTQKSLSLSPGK

[3] = target: T1, GFRα4 isoform a (GFRα4a), Fc fusion …; test: phage ELISA, immobilized GFRα4a; first token of the cell (W weak binding)
Excerpt: as §1

[4] = target: T1, GFRα4 isoform a (GFRα4a), Fc fusion …; test: phage ELISA, immobilized GFRα4a; first token of the cell
Excerpt: as §1

[5] = target: T1, GFRα4 isoform a (GFRα4a), Fc fusion …; test: phage ELISA, immobilized GFRα4a (FIG. 6)
Excerpt: as §1
(§2) Binding of the positive scFvs from this experiment were also screened for binding to GFRα4b (FIG. 7). […] As observed in previous ELISAs of this type with the original rabbit P4-10 expressed as an antibody fragment on phage, reactivity always appears greater against the GFRα4b isoform.

[6] = target: T3, GFRα4 isoform b (GFRα4b), Fc fusion; test: phage ELISA, immobilized GFRα4b against GFRα4a
Excerpt: as §1, §2

[7] = target: T2, human GFRα4 isoform a (GFRα4a) on …; test: flow cytometry and sorting of Nalm6 cells transduced with human GFRα4a-T2A-GFP
Protocol: Cytotoxicity of target cells by GFRα4-directed CAR-T cells was evaluated using a 51Cr release-assay. Target cells comprised either Nalm6 cells (a CD19-expressing B-cell precursor leukemia cell line (ATCC® CRL-3273TM)), Nalm6 cells expressing the GFRα4 isoform a (GFRα4a) or isoform b (GFRα4b), or TT cells (a human medullary thyroid cancer cell line (ATCC® CRL-1803TM)). Nalm6 cells expressing GFRα4 proteins were produced by transduction with lentiviral vectors encoding human GFRα4a-T2A-GFP or human GFRα4b-T2A-GFP (Milone et al. (2009) Molecular Therapy., 17: 1453-1464). […] P4-10 antibody comprised a full-length rabbit IgG containing the P4-10 rabbit variable regions and was a gift of Novartis Pharmaceuticals.

| Binder | binding result [1] | further results |
| --- | --- | --- |
| B1 | no binding | – |
| B2 | no binding | – |
| B3 | no binding | – |
| B4 | no binding | – |
| B5 | no binding | – |
| B6 | – | binding result [2]: binds; binding result [3]: binds |
| B7 | – | binding result [4]: binds; binding result [2]: binds |
| B8 | no binding | – |
| B9 | – | binding result [5]: binds; binding result [6]: binds |
| B10 | no binding | – |
| B11 | no binding | – |
| B12 | – | binding result [7]: binds |
